Results: article PMC11335211, “In vivo photocontrol of orexin receptors with a nanomolar light-regulated analogue of orexin-B” (Cellular and Molecular Life Sciences: CMLS, 2024)

Tests used:
human OX1 = target: T1, human OX1 (Homo sapiens, UniProt O43613); test: FLIPR Tetra calcium mobilization assay, CHO-K1 cells; format: cell-based; settings: CHO-K1 cells stably expressing hOX1; 0.3 nM to 1 µM; two independent experiments in triplicates
T1 construct: expressed in transfected cells
T1 sequence (O43613 1-425): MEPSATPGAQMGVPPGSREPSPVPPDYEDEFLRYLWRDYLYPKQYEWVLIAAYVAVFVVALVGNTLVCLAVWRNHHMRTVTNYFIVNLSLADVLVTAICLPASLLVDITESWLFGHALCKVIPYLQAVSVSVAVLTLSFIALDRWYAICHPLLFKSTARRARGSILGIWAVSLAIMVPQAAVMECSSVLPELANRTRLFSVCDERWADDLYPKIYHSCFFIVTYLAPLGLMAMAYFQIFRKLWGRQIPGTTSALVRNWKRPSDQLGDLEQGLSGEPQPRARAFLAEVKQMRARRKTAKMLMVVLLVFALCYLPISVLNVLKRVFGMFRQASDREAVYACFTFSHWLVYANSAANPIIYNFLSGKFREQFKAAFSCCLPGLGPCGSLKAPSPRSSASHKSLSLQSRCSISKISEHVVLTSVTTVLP
Protocol: (§1) Samples of trans phOX were kept in the dark both prior to and during the whole duration of the experiment to avoid undesired photoconversion caused by environmental light. Unless differently stated, data for cis phOX were obtained by pre-illuminating the samples for 10 min with 365 nm UV light.
(§2) PFSK-1 cells were cultured in RPMI 1640 supplemented with 10% fetal bovine serum (FBS), 100 units/ml penicillin, and 100 µg/ml streptomycin. Chinese hamster ovary-K1 (CHO-K1) cells stably transfected to express human OX1 were cultured in Dulbecco’s Modified Eagle’s Medium/Nutrient Mixture F-12 Ham (DMEM/F12 1:1) medium supplemented with 10% FBS and 600 µg/ml G418. All cell lines were grown at 37 °C in 5% CO2.
(§3) Cells were plated at 50,000 cells/well in 96-well black-wall plates with poly-D-lysine-coated clear bottoms and grown overnight at 37 °C in 5% CO2. […] Calcium-mediated changes in fluorescence were monitored in a Fluorometric Imaging Plate Reader (FLIPR) Tetra instrument (Molecular Devices, USA). Fluorescence intensity was measured for 12 s to establish baseline fluorescence before addition of the test compound (20 µL/well) and further readings for a total of 155 s (excitation at 470–495 nm, detection at 515–575 nm). […]
(§4) Raw data from the FLIPR Tetra was exported as the difference between maximum and minimum fluorescence observed for each well. […] Agonist potencies (EC50) are expressed as means + SD.

OX2 = settings: in words; cited from earlier work
Description: Among these, a family of neuroexcitatory peptides known as orexins (or hypocretins) is critically involved in regulating sleep and wakefulness, energy homeostasis, and reward. Orexin signaling is mediated by two closely related G protein-coupled receptors (GPCRs) – OX1 and OX2 (orexin) receptors – which are strongly conserved among mammals. While orexin cell bodies are concentrated in the hypothalamic area, orexin receptors are widely expressed in the central nervous system (CNS). Their endogenous ligands are two peptides, named ...

OX1 receptor = settings: membrane-based binding assay; ref Langmead et al., 5 (SI); cited from earlier work
Description: Although the lack of binding with all three forms of OX-B - including the native ligand control - came unexpected, similar findings had already been observed for the OX1 receptor.

[1] = parameters: method as in PMID 10087007; settings: cited from earlier work
hOX2 [2] = target: T2, hOX2 (Homo sapiens, UniProt O43614); test: FLIPR Tetra calcium mobilization assay, PFSK-1 cells; format: cell-based; settings: PFSK-1 cells innately expressing hOX2; 0.3 nM to 1 µM; two independent experiments in triplicates
T2 sequence (O43614 1-444): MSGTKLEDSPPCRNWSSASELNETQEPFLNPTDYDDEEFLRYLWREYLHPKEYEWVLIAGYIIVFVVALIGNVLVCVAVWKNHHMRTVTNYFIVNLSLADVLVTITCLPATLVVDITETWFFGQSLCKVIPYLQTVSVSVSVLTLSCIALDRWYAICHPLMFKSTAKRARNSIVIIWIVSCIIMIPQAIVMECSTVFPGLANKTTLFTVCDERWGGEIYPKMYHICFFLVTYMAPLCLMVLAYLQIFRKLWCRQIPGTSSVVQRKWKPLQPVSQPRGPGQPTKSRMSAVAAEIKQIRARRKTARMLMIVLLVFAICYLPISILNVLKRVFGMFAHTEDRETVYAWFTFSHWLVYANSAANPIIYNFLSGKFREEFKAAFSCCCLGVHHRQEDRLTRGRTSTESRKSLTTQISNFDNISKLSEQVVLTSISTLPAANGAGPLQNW
Protocol: as §1, §2, §3, §4

[3] = parameters: method as in 2 sources, one per row (each row's own in cited_ref): ref 75–77 = [75]; PMID 10087007; 75. Kastin AJ Akerstrom V Orexin A but not orexin B rapidly enters brain from blood by simple diffusion J Pharmacol Exp Ther 1999 289 219 223 10087007 || [76]; PMID 12626669; doi:10.1113/jphysiol.2002.038729; 76. John J Wu M-F Kodama T Siegel JM Intravenously administered hypocretin-1 alters brain amino acid release: an in vivo microdialysis study in rats J Physiol 2003 548 557 562 10.1113/jphysiol.2002.03 || [77]; PMID 14746374; doi:10.1093/sleep/26.8.953; 77. Fujiki N Yoshida Y Ripley B Mignot E Nishino S Effects of IV and ICV hypocretin-1 (orexin A) in hypocretin receptor-2 gene mutated narcoleptic dogs and IV hypocretin-1 replacement therapy in a hyp ||| ref 75 = [75]; PMID 10087007; 75. Kastin AJ Akerstrom V Orexin A but not orexin B rapidly enters brain from blood by simple diffusion J Pharmacol Exp Ther 1999 289 219 223 10087007; settings: cited from earlier work
hOX2 [4] = target: T2, hOX2; test: Radioligand competitive binding assay ([3H]EMPA); parameters: expressed in transfected cells; membranes; settings: control ligands; HEK-293-hOX2 membranes, [3H]EMPA 2 nM, 60 min rt, 10^-9 to 10^-6 M; two independent experiments in triplicates
Description: The affinity towards OX2 was studied in a competitive radioligand binding assay on membranes derived from HEK-293 cells stably transfected with the human receptor. [^3H]EMPA, an OX2-selective orthosteric antagonist, was used as radioactive tracer to quantify residual binding after competitive displacement in the presence of the unlabeled ligands.^3 Wild-type OX-B and almorexant, a non-selective OX1 and OX2 antagonist, served as controls.^4
[^3H]EMPA (specific activity 27 Ci/mmol) and almorexant were synthesized at Janssen Research & Development LLC (San Diego, CA), while orexin-B was obtained from Bachem (Torrance, CA).
Cell membranes were prepared from a stable pool of HEK-293 cells transfected with the human OX2. Test compounds were dissolved in DMSO (10 mM stock solutions) and diluted in Dulbecco’s phosphate-buffered saline supplemented with 0.1% bovine serum albumin (BSA). Competition studies were performed by incubating the membranes with the OX2-selective antagonist [^3H]EMPA (2 nM) and different concentrations of the test compounds (7 concentrations ranging from 10^−9 to 10^−6 M). After a 60-minute incubation at rt, binding reactions were filtered to separate the excess of free ligand from the membranes. Filters were then counted for radioactivity in a scintillation counter. Nonspecific binding was determined in the presence of 10 µM almorexant.
Specific binding was determined and plotted as a function of the concentration of the compound using GraphPad Prism v8.3.1 (GraphPad Software, San Diego, USA). Data were analyzed by nonlinear regression using a one-site competition model.

In the case of “OX-B: endogenous orexin peptide, native ligand control, obtained from Bachem”, the “increase in calcium release (agonist activity)” value (human OX1) is given as “increased calcium release in a concentration-dependent manner”, the receptor selectivity (OX2) is given as “selective for OX2” and the “occupation of OX1 orthosteric site versus [3H]SB-674042” value (OX1 receptor) is given as “failed to occupy the receptor orthosteric site”. The “lipophilicity relative to OX-A” value [1] was “not as lipophilic”, the “increase in calcium release (agonist activity)” value (hOX2 [2]) was “increased calcium release in a concentration-dependent manner” and the metabolism [3] was “readily metabolized”. The “inhibition of [3H]EMPA binding” value (hOX2 [4]) was “did not compete to bind to the receptor”.
